From the supplement of paper PMC9170038

system: K4 kissing-loop RNA reporter; test: apparent KD of K4 kissing-loop reporter; higher = weaker reporter binding; details: Eterna round: R107; input ligand: arginine 13.2 mM
Protocol: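 RNA-MaP round R107: designed RNA switches with theophylline, tryptophan, arginine or FMN aptamers are transcribed on-chip within common flanks. They are titrated with a labelled K4 kissing-loop RNA reporter in RNA-MaP buffer (100 mM Tris pH 7.5, 80 mM KCl, 4 mM MgCl2), without ligand or with the indicated ligand. Median apparent KD per design.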
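Also: bound reporter read as fluorescence of individual clusters on recovered sequencing chips by microscopy, with normalized cluster intensities fitted with a binding model.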

Sequence | apparent KD of K4 kissing-loop reporter
AAUUAAUACAGAAGGAGCGUGAAAUUAUCUACUUUUAACUUAGCGAGUGAUGUUCGUUUUUCACAGGUAGGUCGCUGUAUAUUUA [JR_ExcArginiB_Sub009] | 214 nM
UAAAUAAAAUCCUAGUGAUGUUAGGAUAUGUAGGAUAUCGGGAUACCGAGAAGGACAGAAGGAGGAGUGAUGUUCCUCAAUAAAU [FmnAX 30 #DoubleAptamer #DoubleK4 #OpenEnded] | 72.1 nM
AUCAUUAGUUCGGCCGCCACUCCAGUGAUGUUGGAGGGACGCAUAAUAUGCGCGCGGCCAACUAGGAGGACCGGGAACUUUAAGC [Intionge] | 122 nM
GAAUAAUAAGUAGCAGUGAUGUUGCUACUACGAGGACCGGUACGGCCGCCACUCGAAUACGAGUGGACACUGCUACUACCACUCG [(H1)-(H2)-(Trp1)-(Trp2)-(T)'-(H)'-(T)''_Design8] | 118 nM
AGACUUCACCGAAGGAGCGACGUGGUCUAGUGAUGUUAGACACGAGAGAAAUCUCGUAUACGUCAGGUAGGUCGCGGUGAAGUCA [Omei KL Arginine B SS C v9] | 119 nM
UUUAAAUAUAGUGAUGUUAUAUAACAAUGACGAGGACCGGUACGGCCGCCACUCGAGAGAGAUAAUGAUAAAAUAAAUAAUUUUC [AstrosSSTrypA#1] | 654 nM
UUUAAAUAUAGUGAUGUUAUAUAACAAUGACGAGGACCGGUACGGCCGCCACUCGAGAGAGAUAAUGAUAAAAUACAUAAUUUUC [AstrosSSTrypA#2] | 746 nM
CACGAUGAAUUCUCUAGGAGUGAUGUUUUUCGAGGACCGGUACGGCCGCCACUCGGACGACGAGUGUGGUAGCGGGCUGAAGACU [zgullin] | 262 nM
UAUUCUGUUCGAAAGAACGGAAUUUCGGAAGGAGCGAGAGAAAUCUCAGGUAGGUCGCCGAAAUUAUUAGAUAGUGAUGUUAUCU [Arginine A K4 4] | 110 nM
ACAGUUGCUAGUGAUACCAGACUAGCACUACGUAGUAUGUCAAGUGAUGUUUGACAACUAGUCCCUUGGCAGCGCGAUACGACUG [#12 K4 Theophylline B Same State] | 152 nM
AAGAGAUAGGGAGGAUAUGCCCUAUUGAGAACCGAGUGAUGUUCGGUAGGACAAAUAGUCCACAGGGUAGAAGGCCCACAUCACA [SS FNM B Tesla 2] | 213 nM
GUGGUUUACGUAGGAUAUCGAUGAUGAGUAAAUGGAGUGAUGUUCCGAGAUUGAAUAUGAGAUGAGCGAGAAGGGCGGUUUAUGC [FMN B Same State; Euporia Solution 2] | 36.9 nM
UAAGACAUGAAAGGAUAUCCGAUAUGGAGCCUUUAGUGAUGUUAGGAGCUAGCCGUAGACAAGAUCGGAGAAGGUUCAACCCACA [theeternabot_sameState_KL_FMN_B_13] | 506 nM
CCGGCCCAGCCGGAUACCAGUGCGCCGCAGGGAACGGCGGGCCCAGAGUGAUGUUCGGGACACCCUUGGCAGCCGCCUGGGUCGU [#2 Same State - Theophylline B Attempt #28 (HarryS)] | 262 nM
UAUACGAAGCAGUGAUGUUGCUUAUGAGAAGGAGCGCACGAAAGUGCAGGUAGGUCGCUCAGCCAUGUGGACGAAAACGUCCACA [whbob_SS_Arginine_A_sa110] | 130 nM
GUGCGGUGGAGGCUACCGCUACUCUGAGAAGGAGCGCAGAUGACUGCAGGUAGGUCGCUUAGAGCUUGCAGUGAUGUUGCAAGUU [Teorzaqu] | 157 nM
UGGAGUUGACGAAAAGUCAACUCCUGAGAAGGAGCGGACGAAAGUCCAGGUAGGUCGCUCACUACCAGUGAUGUUGGUAAUUCAA [#OpenEnded 3] | 284 nM

Sequence | apparent KD of K4 kissing-loop reporter
GGGUAUUACGGAGGAUAUGCACUGAGGAGGAGAAUAUAGUGAUGUUAUAUAAGAGGAAGGAGAAGAGUAGAAGGCCGUGGUAUUG [SSFMNB.H] | 217 nM
AUUUAAUGUAUAGAUUAUAUACAUUAUUCAGAGGAUAUGCUUUGAAGCAGAAGGCUGGAUGUAGUGAUGUUGCAAUUUUAAUUUA [JR_SSFMNA_Sub006] | 265 nM
CCAGGACGAUGAGGAGGAUGAAUUACUGAAGGAGCGCAUAUGGUUGCAGGUAGGUCGCGGUGAACAAGUAUAGUGAUGUUAUAUC [SSArgA.S] | 971 nM
CAGAUCACAGAGUGAUGUUCUGUGUCCGAAGGAGCGCGCGAGAGCGCAGGUAGGUCGCGGAUACAGUUGACGUACCAUCUAGACA [Arg A Ex t3b] | 244 nM
GAAUUAUGUAGAAGGAGCGUCAGAAGGUAUAGGUGCGAGUGAUGUUUGGACCUGUUAAUUUGACAGGUAGGUCGCUACAGAAGGA [KL-SSArg B20 #analogue] | 291 nM
UCUGGAGCAUAUGAUACCAGCAGUGAGAGACAGGAAGUAUAGUGAUGUUAUAUGAGAGAAUGCCCUUGGCAGCGUGUGUAGUGGG [SSTheophylB.N] | 137 nM
AAGUGAUGUUGUAGUGAUGUUGUGAUGUUGCAGGAUAUAUAGUGAUGUAGAAGGGUAAGUACUGAUGUUGUUAGUGAGUGAUGUU [wwzrrmullin] | 49.8 nM
UGGUUUAACUGAAGGAGCGGCAAUUGAUAAGUAGAUAUAGUGAUGUUAUAUAAGAUAGAGAGCCAGGUAGGUCGCAGAGGUGUUU [ExArgB.Q] | 204 nM
ACCUACGAUCACAAAAGUGAUUGUAGGAUCUAGGAUAUGCUGAAAAGCAGAAGGAGAGUGAUGUUCUCAACUCACGAAAGUGAGA [FmnAX 1 #OpenEnded #K4Late] | 184 nM
CCAUCGCUAUUCGAUACCAGUCAUUAAAUCUUUGGUUUAAUAAAGGAGUGAUGUUCCCAAGACCCUUGGCAGCGAAUAGUGAUGG [Theophylline B K4 9] | 183 nM
GGCUCCUACGCAGGAUAUAGUAGCCGAGAGUGAUGUUCUACGGCGUUUGCCGAUUUAGUCACAGAUCUAGAAGGGUGUAGGAGCC [XFMN-B PiClone] | 660 nM
AGACUUCACCGAAGGAGCGACGUAGCCUAGUGAUGUUAGGCAAGAGAGAAAUCUCUUAUACGUCAGGUAGGUCGCGGUGAAGUCA [Omei KL Arginine B SS C v2] | 118 nM
GUAGGAUGAGGAGGAGGAUGAAUUACUGAAGGAGCGCAAAGAAAUGCAGGUAGGUCGCGGUAAAGAAGUAUAGUGAUGUUAUAUC [#08 K4 Arginine A Same State] | 416 nM
CUCUUCUUUCUUUUAGUGAUGUUAAAUUAGCGAGGACCGGUACGGCCGCCACUCGUAUAGCUGGAAUGACUGUGCGAGGGUUUGU | 514 nM
AGACUACCACACUGUCAAUAGACAGUGAACUAGGAUAUGCUGAUAAGCAGAAGGAGUGAUGUUCCCAGGUAGUCAAUAAAAUAAU [FmnAX 13 C66] | 185 nM
GGACGCCGGUCGGCCGCCACUCACAGCAGCCAGUGAUGUUGGAUUGUAGCGGAGUGAUGUUCCGAGAGGACCGGGACUGCAGUCU [Same State Tryptophan B GF 11] | 135 nM

same assay, conditions: Eterna round: R107; input ligand: none

Sequence | apparent KD of K4 kissing-loop reporter
CUGUUUGGUUGAGAGGUUGGGCGGAAUGAUACCAGUAUAUAAGAAUACCCUUGGCAGCAUAAGAAAGAUAUAGUGAUGUUGUAUA [SSTheophA.K] | 464 nM
UCGCCAAAGUCGGCCGCCACUCCGGGCCCUAUAAAUGGGCGCAGUGAUGUUGCGGCUAGGCCUCUGAGGACCGGGACUUUGUAAA [Tiesgeza] | 68.9 nM
AAUACCUGAGUGAUGUUCAGGGAAUCAGAAGGAGCGUCAAUUAUGACAGGUAGGUCGCUGAAUACAUGUGUGUAUACACAUGUAC [Arg A SS t4] | 278 nM
AAUAGGGAUAGUGAUGUUAUCCCUUAUGAUACCAGUGCCAUCGGACACCCUUGGCAGCAUACGGGCAGUGAUGUUGUUCUUGGAG [Exclusion Theophylline A GF 15] | 78.6 nM
UUGGACCUUAGCCUCAAUAGAACUUUGUUACGAGGACCGGUACGGCCGCCACUCGUCGGGCUCCGAUAGCCAGUGAUGUUGGCAA [theeternabot_sameState_KL_Trp_A_16] | 693 nM
AGGAUGUAGUGAUGUUAUAUAAGAAGUAAACGAGGACCGGUACGGCCGCCACUCGAAACGGCUACUAGCGCGUUGCGAGGUGUGC [ExTryptoA.Cf] | 808 nM
GUCUGUGUACUAGGAUAUGGUUGCAGGCAGUCAGGUCGCCUUUUCGGCGGCCAGUGAUGUUGGUGGCCAGAAGGAGUACGUGAUG [Raorin] | 731 nM
UGACAUUGCUCAGAUACCAGACUUGAGGAUCACCCAAGUGCCAAAACGUACUAAAUAAAAGUCCCUUGGCAGCUGAGCAAUGUCU [TheoBX 13] | 40.6 nM
CGCCGAUUGUCGGAGUGAUGUUCCCGGGAUACCAGCACGUCGUCAUGCCCUUGGCAGCCCAACAGACCAUUUUAAAGGCUAGCUG [theeternabot_sameState_KL_Theo_A_35] | 122 nM
CUCGUGGGUUUGAGAGGGUUUGUGGGAAGUGAGGAUAUUUAGGGAGAAAGAAGGCACUAUAAAAUAUAGUGAUGUUAUAUAAGGG [SSFMNA.L] | 325 nM
AAUUAAUACAGAAGGAGCGUGAAAUUAUCUACUUUUAACUUAGCGAGUGAUGUUCGUUUUUCACAGGUAGGUCGCUGUAUAUUUA [JR_ExcArginiB_Sub009] | 194 nM
UAAAUAAAAUCCUAGUGAUGUUAGGAUAUGUAGGAUAUCGGGAUACCGAGAAGGACAGAAGGAGGAGUGAUGUUCCUCAAUAAAU [FmnAX 30 #DoubleAptamer #DoubleK4 #OpenEnded] | 59.3 nM
AUCAUUAGUUCGGCCGCCACUCCAGUGAUGUUGGAGGGACGCAUAAUAUGCGCGCGGCCAACUAGGAGGACCGGGAACUUUAAGC [Intionge] | 118 nM
GAAUAAUAAGUAGCAGUGAUGUUGCUACUACGAGGACCGGUACGGCCGCCACUCGAAUACGAGUGGACACUGCUACUACCACUCG [(H1)-(H2)-(Trp1)-(Trp2)-(T)'-(H)'-(T)''_Design8] | 121 nM
AGACUUCACCGAAGGAGCGACGUGGUCUAGUGAUGUUAGACACGAGAGAAAUCUCGUAUACGUCAGGUAGGUCGCGGUGAAGUCA [Omei KL Arginine B SS C v9] | 146 nM
UUUAAAUAUAGUGAUGUUAUAUAACAAUGACGAGGACCGGUACGGCCGCCACUCGAGAGAGAUAAUGAUAAAAUAAAUAAUUUUC [AstrosSSTrypA#1] | 643 nM
UUUAAAUAUAGUGAUGUUAUAUAACAAUGACGAGGACCGGUACGGCCGCCACUCGAGAGAGAUAAUGAUAAAAUACAUAAUUUUC [AstrosSSTrypA#2] | 806 nM
CACGAUGAAUUCUCUAGGAGUGAUGUUUUUCGAGGACCGGUACGGCCGCCACUCGGACGACGAGUGUGGUAGCGGGCUGAAGACU [zgullin] | 643 nM
UAUUCUGUUCGAAAGAACGGAAUUUCGGAAGGAGCGAGAGAAAUCUCAGGUAGGUCGCCGAAAUUAUUAGAUAGUGAUGUUAUCU [Arginine A K4 4] | 135 nM
ACAGUUGCUAGUGAUACCAGACUAGCACUACGUAGUAUGUCAAGUGAUGUUUGACAACUAGUCCCUUGGCAGCGCGAUACGACUG [#12 K4 Theophylline B Same State] | 170 nM
AAGAGAUAGGGAGGAUAUGCCCUAUUGAGAACCGAGUGAUGUUCGGUAGGACAAAUAGUCCACAGGGUAGAAGGCCCACAUCACA [SS FNM B Tesla 2] | 244 nM
